Data published in the supplement of paper PMC9732359.
± gives the uncertainty stated by the source.

Test: protein stability index of a GFP-peptide fusion (yeast GPS) (PSI 1-4); higher = more stable; sorted into four equal gates, so the index is relative within each strain
Procedure, shortened: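 Mid-log yeast cultures in leucine-free medium, carrying a pooled plasmid library, were sorted into four equal gates by their GFP/Cherry fluorescence ratio. Each plasmid expressed Cherry along with GFP fused upstream of a tiled 17-residue yeast protein peptide. Plasmids recovered from each gate were PCR-amplified and Illumina-sequenced, with reads assigned to strains by barcodes. The protein stability index was obtained by summing each gate's read frequency weighted by its gate number.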

Sequence	protein stability index (doa10∆)	protein stability index (pdr5∆)	protein stability index (san1∆)	protein stability index (ubr1∆)
IIRQLSELNEGNLSKRE [SRB8]	3.18 ± 0.12	3.53 ± 0.11	3.4 ± 0.1	3.42 ± 0.27
LRQKHEFLEDFDLVRNI [SMC2]	3.1 ± 0.11	3.05 ± 0.098	3.14 ± 0.063	3.34 ± 0.099
KKRREYFPEGYNNKVGV [SIR2]	2.42 ± 0.13	3.56 ± 0.19	2.54 ± 0.2	2.69 ± 0.047
IEITNSNDLCSQIFDQL [SRB8]	2.67 ± 0.057	2.96 ± 0.074	2.69 ± 0.059	2.74 ± 0.043
EGGKNQAELLQLAVKII [YJL039C/NUP192]	2.87 ± 0.12	3.28 ± 0.081	3.3 ± 0.2	2.72 ± 0.11
RKASCIWLLSYIQYLGH [ECM29]	1.88 ± 0.06	2.15 ± 0.046	2.32 ± 0.054	1.96 ± 0.036
SGDSGVYTLACRSCPYE [RPC11]	1.28 ± 0.13	2.01 ± 0.18		1.26 ± 0.15
KTLIGLQGIVIWDSQKF [POP4]	1.7 ± 0.061	1.91 ± 0.051	2.17 ± 0.071	2.38 ± 0.044
SFSFGAPESMKSTASTA [YOR098C/NUP1]	3.07 ± 0.069	3.13 ± 0.091	3.31 ± 0.059	3.12 ± 0.053
LFQELSKVVDDMPSLRL [GRR1]	3.2 ± 0.18	1.61 ± 0.11	2.22 ± 0.12	2.31 ± 0.085
IKKFAKLHMGTDDVRLA [RPL31A]	1.7 ± 0.037	1.32 ± 0.042	1.24 ± 0.064	1.58 ± 0.037
SQLPITPMTRISELPPQ [YGL172W/NUP49]	2.35 ± 0.057	2.67 ± 0.047	2.13 ± 0.051	2.71 ± 0.041
ADCQAELTKTKSSLYSA [YIL149C/MLP2]	2.6 ± 0.055	2.59 ± 0.055	2.46 ± 0.069	2.23 ± 0.045
PPPPPPPGYEIEELDNP [PRP8]	2.87 ± 0.046	2.98 ± 0.04	3.04 ± 0.048	3.03 ± 0.033
HLVMRAISLGLLKGSID [RPN9]	2.04 ± 0.095	2.55 ± 0.14	1.58 ± 0.18	1.79 ± 0.16
EDCVEEFFHLQHYLDTA [QCR6]	3.21 ± 0.085	3.4 ± 0.081	3.13 ± 0.063	3.31 ± 0.068
STAFVPTIEYVQCPTVI [ARP9]	1.68 ± 0.065	1.97 ± 0.048	1.71 ± 0.08	1.88 ± 0.052
IKLSLKDKTKNISAEII [SMC4]	2.84 ± 0.082	3.09 ± 0.08	3.04 ± 0.066	3.11 ± 0.082
SKQQAKGAFQKVAATSR [RPL24A]	2.52 ± 0.043	2.99 ± 0.045	2.84 ± 0.036	2.8 ± 0.038
HLGKGTMTMDVFNDAHV [RPN1]	2.96 ± 0.073	2.98 ± 0.084	2.06 ± 0.12	2.87 ± 0.081
DDINKAKAVWENIIIVG [ARP9]	1.58 ± 0.05	2.17 ± 0.082	1.67 ± 0.092	2.03 ± 0.073
QWIKFLLHTLYLRPASA [SSN8]	1.81 ± 0.051	1.59 ± 0.042	1.4 ± 0.073	1.72 ± 0.035
VKKTGENEISSLLAMHK [CDC53]	2.75 ± 0.3	2.54 ± 0.12	2.05 ± 0.3	2.87 ± 0.25
CWAVRADVHFLDCDGGF [RRP45]	2.31 ± 0.2	2.65 ± 0.14	2.9 ± 0.085	2.72 ± 0.064

Sequence	protein stability index (doa10∆)	protein stability index (pdr5∆)	protein stability index (san1∆)	protein stability index (ubr1∆)
SNFTSIIGPNGSGKSNM [SMC1]	3.33 ± 0.13	3.04 ± 0.15	3.37 ± 0.12	3.46 ± 0.093
TNTSKQFQKARNNVMLL [SRB8]	2.65 ± 0.14	3 ± 0.066	2.94 ± 0.06	2.92 ± 0.083
KLKECPFDMGGYFIING [RPB2]	3 ± 0.078	3.07 ± 0.082	2.72 ± 0.073	3.07 ± 0.051
ALFQPPNFDWDLCSSVL [ROX3]	3.08 ± 0.077	3.29 ± 0.098	2.95 ± 0.089	2.92 ± 0.09
GDVKNMEDVKIQKEEEP [SWI3]	3.45 ± 0.14	3.4 ± 0.2	3.43 ± 0.085	3.14 ± 0.12
LALALGILYMGQGEQVD [RPN1]	1.26 ± 0.16	1.5 ± 0.13	1.45 ± 0.13	1.23 ± 0.11
SLVNSYIIDSPQPSSIN [COB]	1.51 ± 0.085	1.59 ± 0.08	1.64 ± 0.15	1.32 ± 0.081
GIAIGLNKGKKVTSMTP [RPL36A]	3.08 ± 0.18	3.13 ± 0.12		3.15 ± 0.1
SLKNTDALLNSTTEHIN [YJL039C/NUP192]	1.9 ± 0.15	2.49 ± 0.094	2.13 ± 0.12	2.42 ± 0.16
SVSFKVFLLLQAYFSRL [BRR2]	1.39 ± 0.044	1.47 ± 0.063	1.22 ± 0.088	1.42 ± 0.051
LCHPKKEKYGLAVSTIL [SMC1]	2.29 ± 0.063	2.31 ± 0.063	2.23 ± 0.091	2.15 ± 0.048
LMTFNAETKSYDSRGVG [YLR335W/NUP2]	2.19 ± 0.063	2.65 ± 0.059	2.74 ± 0.054	2.71 ± 0.048
CAMSGLTADARSMIEHA [PUP2]	2.3 ± 0.13	2.94 ± 0.18		2.64 ± 0.12
QNSYADKVTSQAVNNLI [RPP1]	1.82 ± 0.047	1.93 ± 0.09	1.68 ± 0.099	2.11 ± 0.068
FCPIVEEIVSNSSRFSD [YCS4]	1.97 ± 0.1	1.35 ± 0.14	1.68 ± 0.21	2.35 ± 0.057
PQDLTFNAGSNPPSYQS [RPB7]	2.96 ± 0.17	2.99 ± 0.11	3.1 ± 0.17	2.86 ± 0.096
GLGETSGDNHTQQSHEQ [RPT4]	3.32 ± 0.14	3.19 ± 0.21		3.23 ± 0.22
LDEDDTNDGIERYSDKY [RPC31]	3.32 ± 0.14	3.4 ± 0.12	3.22 ± 0.11	3.26 ± 0.074
VLMERKDERGEGEAKQK [ITC1]	2.94 ± 0.21	3.35 ± 0.24		3.07 ± 0.22
DSGIGSNGSGIVAAGGG [CSL4]	3.45 ± 0.066	3.34 ± 0.07	3.35 ± 0.052	3.42 ± 0.058
TVLFFIGVRCYEAYPNT [FAS1]	1.21 ± 0.054	1.23 ± 0.049	1.66 ± 0.1	1.8 ± 0.043
DDISRQVARTNLDGTKA [ROX3]	3.12 ± 0.096	2.88 ± 0.091	3.09 ± 0.087	3.11 ± 0.071
QIIVTDGKLEPSTRSNF [YJL039C/NUP192]	2.38 ± 0.099	3.13 ± 0.13	2.88 ± 0.11	3.32 ± 0.18
STYLPKLISAFDDLEVE [RRP42]	2.63 ± 0.051	2.75 ± 0.042	2.58 ± 0.05	2.74 ± 0.032
